Measurements: patent US20170088610A1

Legend:
[1] = target: human nerve growth factor (human), P01138
[2] = target: human nerve growth factor (human), P01138; remark: listed apart in the source
[3] = target: human nerve growth factor (human), P01138; test: cell-based or functional assay

Sequence of human nerve growth factor (human), P01138 (P01138 122-241 limits assumed): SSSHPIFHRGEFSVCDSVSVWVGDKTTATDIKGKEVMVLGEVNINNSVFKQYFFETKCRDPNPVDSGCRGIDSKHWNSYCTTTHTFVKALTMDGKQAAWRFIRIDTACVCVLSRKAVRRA

B1: antibody E3 (full antibody) (antibody, human IgG2, kappa)
heavy: QVQLQESGPGLVKPSETLSLTCTVSGFSLIGYDLNWIRQPPGKGLEWIGIIWGDGTTDYNSAVKSRVTISKDTSKNQFSLKLSSVTAADTAVYYCARGGYWYATSYYFDYWGQGTLVTVSSASTKGPSVFPLAPCSRSTSESTAALGCLVKDYFPEPVTVSWNSGALTSGVHTFPAVLQSSGLYSLSSVVTVPSSNFGTQTYTCNVDHKPSNTKVDKTVERKCCVECPPCPAPPVAGPSVFLFPPKPKDTLMISRTPEVTCVVVDVSHEDPEVQFNWYVDGVEVHNAKTKPREEQFNSTFRVVSVLTVVHQDWLNGKEYKCKVSNKGLPSSIEKTISKTKGQPREPQVYTLPPSREEMTKNQVSLTCLVKGFYPSDIAVEWESNGQPENNYKTTPPMLDSDGSFFLYSKLTVDKSRWQQGNVFSCSVMHEALHNHYTQKSLSLSPGK
light: not shown
modifications: not checked
[1]
  IC50 (read off the curve), NGF-dependent survival of E13.5 trigeminal neurons (0.4 ng/ml human NGF, 48 h): 8 pM
[2]
  IC50 (read off the curve), NGF-dependent survival of E13.5 mouse trigeminal neurons (0.4 ng/ml human NGF, 48 h) (nM binding sites): 0.02
[3]
  NGF-elicited survival of E17/18 trigeminal neurons: 20 nM
